{"source": "patent US20190381169A1", "about": "“PHARMACEUTICAL COMBINATIONS FOR IMMUNOTHERAPY” (Technische Universitat Dresden, priority 2014, published 2019)", "target": "T1, p75^NTR (Mus musculus, UniProt Q9Z0W1)", "T1 construct": "endogenous in cells; host or cells: murine plasmacytoid dendritic cells differentiated in vitro from bone marrow with Flt3-L (p75NTR+/+ wildtype; p75NTR-/- as control)", "T1 sequence (Q9Z0W1 32-427)": "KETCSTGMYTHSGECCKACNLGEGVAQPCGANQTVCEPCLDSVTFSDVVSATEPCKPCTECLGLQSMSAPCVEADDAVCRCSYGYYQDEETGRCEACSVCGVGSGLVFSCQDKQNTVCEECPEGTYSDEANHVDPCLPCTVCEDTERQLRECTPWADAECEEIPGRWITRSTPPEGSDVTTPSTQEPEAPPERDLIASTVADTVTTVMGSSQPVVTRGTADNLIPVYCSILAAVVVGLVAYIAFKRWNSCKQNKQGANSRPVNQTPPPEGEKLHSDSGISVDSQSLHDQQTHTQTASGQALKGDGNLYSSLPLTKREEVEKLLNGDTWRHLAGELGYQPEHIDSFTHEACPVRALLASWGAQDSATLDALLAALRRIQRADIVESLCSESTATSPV", "assay": "OVA-mediated allergic asthma induced by intratracheal OVA-loaded PDCs", "format": "in vivo", "description": "Heterozygous p75^NTR knockout mice (p75^NTR+/−) were purchased from The Jackson Laboratory (Bar Harbor, Me., USA) and bred under pathogen-free conditions in the animal facility of the TU Dresden. Male and female p75^NTR+/+ and p75^NTR−/− mice were used at 10-12 weeks of age for experiments.\nMurine PDC were generated in vitro as follows: Bone marrow cells were isolated by flushing femur and tibia of mice. Erythrocytes were lysed using ACK buffer. Remaining cells were washed and cultured at a density of 2×10^6 cells per ml in RPMI 1640 medium supplemented with 10% FCS, 1 mM sodium pyruvat, 2 mM L-glutamine, 100 IU per ml penicillin, 100 μg/ml streptomycin, 10 mM HEPES buffer and 0.1 mM β-mercaptoethanol. To differentiate bone marrow cells into PDCs, 100 ng/ml Flt3-L (fms-like tyrosine kinase 3-ligand) was added to the cells. After 8 days of culture PDCs were enriched by removing the CD11b^+ fraction using CD11b Microbeads (Miltenyi Biotec) according to manufacturer instructions. Dead cells were excluded using Dead cell removal Kit (Miltenyi Biotec). Purity of PDCs was evaluated by flow cytometry (CD11b^−CD11c^+B220^+Siglec-H^+).\nTo induce allergic asthma, in vitro generated PDCs were incubated with 100 μg/ml ovalbumin (OVA; grade V; Sigma-Aldrich) for 24 h. To sensitize mice, 1×10^6 OVA-loaded PDCs were injected intratracheally to the lungs of anesthetized mice using 24GA i.v. cannula (BD Neoflon™). Control animals received either the same amount of PDCs without OVA or PBS. After 10 days, mice were exposed to 1% w/v OVA-aerosol for 30 min on 3 consecutive days in order to induce allergic reaction. 24 h after last provocation, animals were sacrificed and the immune reaction was examined based on the bronchoalveolar lavage fluid (BALF) cell composition (eosinophils, lymphocytes, macrophages) and pro-inflammatory cytokines spectrum, lung histology and blood serum OVA-specific IgE levels.\nBALF cells were quantified by flow cytometry. Cells were preincubated with FcR blocking reagent to avoid a non-specific binding. The following antibodies were used for staining: CD3-V500, CD4-V450, CD8-PE Cy7, CD11c-APC Cy7, B220-PE, F4/80-PerCP, SiglecF-AF647, Ly6G-FITC. Among lymphocytes (FSC^low/SSC^low) the CD4^+ T helper cells were designated as CD3^posCD4^pos; the CD8^+ T helper cells as CD3^posCD8^pos; B-cells as CD3^negB220^pos; among granulocytes (FSC^low/SSC^high, Ly6G^pos) eosinophils were assigned as SiglecF^posCD11c^neg and neutrophils as SiglecF^neg. Macrophages were assigned as FSC^high highly autofluorescent CD11c^posF4/80^pos cells. Additionally, the cytospins of collected cells were prepared and stained according to Pappenheim's method.\nBALF supernatant was used for quantification of IL-4, IL-5 and IL-13 by ELISA (eBioscience) according to manufacturer instruction.\nLungs were perfused with PBS and fixed in 4% v/v formaldehyde. 4 μm sections of paraffin-embedded lungs were stained with PAS staining for quantification of inflammation and GobleT-cell hyperplasia.\nNGF is present in the lung and increased during inflammatory processes such as allergic asthma. To investigate the impact of NGF on PDCs during allergen-mediated immune response, p75^NTR+/+ PDCs were incubated with ovalbumin (OVA) in the presence or absence of NGF (100 ng/ml) prior intratracheal instillation to p75^NTR+/+ mice.\nTo substantiate the p75^NTR dependent impact of NGF on PDCs during allergen-mediated immune response, p75^NTR+/+ PDCs were incubated with ovalbumin (OVA) and NGF (100 ng/ml) in the presence or absence of the p75^NTR-specific inhibitory peptide PEP5 prior intratracheal instillation to p75^NTR+/+ mice.", "key": {"[1]": {"conditions": "p75^NTR+/+ PDCs incubated with OVA in presence of NGF (100 ng/ml) vs OVA alone, then intratracheal instillation to p75^NTR+/+ mice"}}}
{"substance": "NGF: Nerve growth factor, best characterized neurotrophin; natural p75^NTR agonist (R&D Systems)", "values": [{"measurement": "number of macrophages in BALF", "setting": "OVA up-take by PDCs in presence of NGF vs OVA alone", "value": "decreased"}, {"measurement": "production of Th2 cytokines (IL-4, IL-5 and IL-13) in the lung", "setting": "OVA-loaded PDCs treated with NGF vs pulsed with OVA in absence of NGF", "value": "increased production"}, {"measurement": "inflammatory phenotype in the lung (histology: perivascular inflammation, mucus production)", "setting": "PDCs treated with NGF during OVA-uptake", "value": "potentiated the inflammatory phenotype in the lung"}, {"measurement": "numbers of eosinophils in BALF", "setting": "[1]", "value": "significantly augmented"}, {"measurement": "numbers of lymphocytes in BALF", "setting": "[1]", "value": "significantly augmented"}, {"measurement": "induction of airway inflammation by p75^NTR−/− PDCs", "setting": "p75^NTR−/− PDCs loaded with OVA in presence or absence of NGF, data not shown", "value": "not able to induce airway inflammation"}]}
